Source: patent US20180057604A1 (Genentech, published 2018)
Like-named read-outs stand apart in the source and are kept apart here.

Columns and labels:
[1] = molecular target: T1, murine BACE1 ECD; experiment: Octet, pH 7.5;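 further: antibodies captured on anti-human capture sensor tips, dissociation monitored in PBS with BSA, Kd obtained from kinetic fit to a one-to-one binding model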
T1 construct: analyte of the Octet assay (200 nM) and enzyme of the first short substrate assay
Protocol: (§1) Anti-BACE1 antibodies were loaded onto anti-human capture (AHC) sensors (tips) followed by 60 seconds baseline in assay buffer. […] Tips were transferred to assay buffer for 5 minutes, 30 minutes, or 120 minutes depending on the off-rate, for off-rate measurement. Assay buffer was either PBS+0.1% BSA, pH 7.5; or PBS+0.1% BSA, pH 5.0. Kinetics were analyzed using a 1:1 binding model.

[2] = molecular target: T2, human BACE1 ECD; experiment: Octet, pH 7.5;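 further: antibodies captured on anti-human capture sensor tips, dissociation monitored in PBS with BSA, Kd obtained from kinetic fit to a one-to-one binding model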
T2 construct: analyte of the Octet assay (200 nM) and enzyme of the first short substrate assay; also called human BACE1 extracellular domain
Protocol: as §1

[3] = molecular target: T1, murine BACE1 ECD; experiment: Octet, pH 5.0;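 further: antibodies captured on anti-human capture sensor tips, dissociation monitored in PBS with BSA buffer, kinetics fitted with a one-to-one binding model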
Protocol: as §1

[4] = molecular target: T2, human BACE1 ECD; experiment: Octet, pH 5.0;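 further: antibodies captured on anti-human capture sensor tips, dissociation monitored in PBS with BSA buffer, kinetics fitted with a one-to-one binding model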
Protocol: as §1

[5] = molecular target: T3, BACE1 in primary mouse cortical neurons (mouse, UniProt P56818 46-501); experiment: cell-based or functional assay
[6] = molecular target: T3, BACE1 in primary mouse cortical neurons; experiment: cell-based or functional assay; remark: listed apart in the source
[7] = molecular target: T4, human TfR extracellular domain with N-terminal His tag (human, UniProt P02786 89-760); experiment: SPR, TfR captured by anti-His, Fab injected;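 further: single cycle kinetics with a Fab dilution series, fitted by a one-to-one Langmuir model or a steady state model, KD taken as koff over kon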
T4 construct: Biotinylated in some assays; also called huTfR; HuTfR
Protocol: (§2) Antibody affinities were measured using surface plasmon resonance (“SPR”) (Biacore™, GE Healthcare). Anti-His antibody (Qiagen) was coupled onto four different flow cells of a BIACORE™ CM5 sensor chip (Biacore, Inc., Piscataway, N.J.) at between 6000 and 8000 RU. Immobilization was achieved by random coupling through amino groups using a protocol provided by the manufacturer. 10×HBS-P (Biacore, Inc., Piscataway, N.J.) was diluted in water and served as the dilution and running buffer. Purified human or cyno TfR was captured, followed by a 3-fold dilution series of IgG or Fab that was injected at a flow rate of 30 ml/min using the single cycle kinetics method. Affinity constants were determined using a simple 1:1 Langmuir binding model or using a steady state model when kₒₙ or koff was beyond the detection limit. The equilibrium dissociation constant (KD) was calculated as the ratio of association rate constant (kₒₙ) and dissociation rate constant (koff).
(§3) In both cases, the SPR experiments were performed as described above.

[8] = molecular target: T5, cyno TfR extracellular domain (analogous construct to human TfR ecd) (cynomolgus monkey, UniProt Q5RDH6 87-760 (Pongo abelii entry)); experiment: SPR, TfR captured by anti-His, Fab injected;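 further: single cycle kinetics with a Fab dilution series, fitted by a one-to-one Langmuir model or a steady state model, KD taken as koff over kon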
T5 construct: also called cynoTfR ecd
T5 chain: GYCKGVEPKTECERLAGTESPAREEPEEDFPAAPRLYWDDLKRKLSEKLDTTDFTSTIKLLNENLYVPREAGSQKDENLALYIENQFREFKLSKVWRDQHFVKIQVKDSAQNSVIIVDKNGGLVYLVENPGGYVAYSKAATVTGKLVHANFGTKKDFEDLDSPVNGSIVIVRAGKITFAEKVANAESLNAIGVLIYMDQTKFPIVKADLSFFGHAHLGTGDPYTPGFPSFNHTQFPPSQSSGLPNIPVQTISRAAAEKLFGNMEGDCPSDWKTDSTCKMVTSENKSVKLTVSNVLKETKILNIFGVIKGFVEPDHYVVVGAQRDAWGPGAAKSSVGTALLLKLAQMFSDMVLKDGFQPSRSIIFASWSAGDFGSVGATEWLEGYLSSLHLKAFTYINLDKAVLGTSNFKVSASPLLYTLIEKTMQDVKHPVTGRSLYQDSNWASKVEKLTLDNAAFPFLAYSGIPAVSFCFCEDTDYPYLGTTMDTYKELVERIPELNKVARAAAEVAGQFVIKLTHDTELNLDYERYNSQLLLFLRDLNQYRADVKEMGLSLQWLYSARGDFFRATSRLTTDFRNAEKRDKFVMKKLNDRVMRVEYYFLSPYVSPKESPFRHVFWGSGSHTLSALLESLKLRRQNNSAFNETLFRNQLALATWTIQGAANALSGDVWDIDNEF
Protocol: as §2, §3

T3 sequence (P56818 46-501): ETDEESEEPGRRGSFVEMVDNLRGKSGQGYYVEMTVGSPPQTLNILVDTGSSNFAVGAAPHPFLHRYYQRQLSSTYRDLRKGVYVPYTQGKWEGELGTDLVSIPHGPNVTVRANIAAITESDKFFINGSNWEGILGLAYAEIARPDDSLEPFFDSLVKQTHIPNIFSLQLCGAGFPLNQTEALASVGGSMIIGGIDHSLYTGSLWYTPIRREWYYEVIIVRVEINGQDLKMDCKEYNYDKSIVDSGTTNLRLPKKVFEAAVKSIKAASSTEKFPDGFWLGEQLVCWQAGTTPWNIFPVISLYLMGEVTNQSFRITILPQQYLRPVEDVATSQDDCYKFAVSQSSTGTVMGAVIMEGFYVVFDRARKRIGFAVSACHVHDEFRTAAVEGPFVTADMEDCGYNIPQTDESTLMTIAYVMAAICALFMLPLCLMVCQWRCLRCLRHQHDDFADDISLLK
T2 sequence (single chain, as listed by the source limits assumed): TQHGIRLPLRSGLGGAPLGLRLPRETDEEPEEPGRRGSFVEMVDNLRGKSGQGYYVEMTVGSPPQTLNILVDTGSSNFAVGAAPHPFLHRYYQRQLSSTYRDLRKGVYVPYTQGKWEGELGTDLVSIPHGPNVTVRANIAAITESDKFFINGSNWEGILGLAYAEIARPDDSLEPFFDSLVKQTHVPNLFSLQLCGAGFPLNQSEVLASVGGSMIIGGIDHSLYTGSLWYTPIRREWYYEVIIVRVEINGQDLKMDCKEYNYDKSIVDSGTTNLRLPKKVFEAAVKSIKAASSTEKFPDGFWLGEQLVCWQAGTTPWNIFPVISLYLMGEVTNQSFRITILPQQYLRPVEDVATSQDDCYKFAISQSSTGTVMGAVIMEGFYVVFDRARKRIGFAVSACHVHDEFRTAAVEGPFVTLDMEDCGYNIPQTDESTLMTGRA
T4 sequence (P02786 89-760 G142S): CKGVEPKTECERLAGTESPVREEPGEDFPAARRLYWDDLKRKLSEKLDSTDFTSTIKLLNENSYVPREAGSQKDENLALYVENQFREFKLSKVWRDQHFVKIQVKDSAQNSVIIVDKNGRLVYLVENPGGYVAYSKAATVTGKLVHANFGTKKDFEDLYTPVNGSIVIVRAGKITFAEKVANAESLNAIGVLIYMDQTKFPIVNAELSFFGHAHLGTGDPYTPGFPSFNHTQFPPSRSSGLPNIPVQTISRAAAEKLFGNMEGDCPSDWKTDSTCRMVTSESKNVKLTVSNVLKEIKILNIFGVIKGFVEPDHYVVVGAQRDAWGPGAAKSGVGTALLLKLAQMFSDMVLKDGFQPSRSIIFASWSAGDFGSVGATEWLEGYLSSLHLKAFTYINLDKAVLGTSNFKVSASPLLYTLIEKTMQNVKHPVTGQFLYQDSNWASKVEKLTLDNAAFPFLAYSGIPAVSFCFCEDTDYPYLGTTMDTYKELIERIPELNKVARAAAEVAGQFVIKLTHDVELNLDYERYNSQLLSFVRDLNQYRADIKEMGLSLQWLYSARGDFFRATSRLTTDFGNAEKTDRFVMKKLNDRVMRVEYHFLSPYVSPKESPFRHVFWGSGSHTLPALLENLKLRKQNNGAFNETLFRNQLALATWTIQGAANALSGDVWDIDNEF
T1 sequence (single chain, as listed by the source limits assumed): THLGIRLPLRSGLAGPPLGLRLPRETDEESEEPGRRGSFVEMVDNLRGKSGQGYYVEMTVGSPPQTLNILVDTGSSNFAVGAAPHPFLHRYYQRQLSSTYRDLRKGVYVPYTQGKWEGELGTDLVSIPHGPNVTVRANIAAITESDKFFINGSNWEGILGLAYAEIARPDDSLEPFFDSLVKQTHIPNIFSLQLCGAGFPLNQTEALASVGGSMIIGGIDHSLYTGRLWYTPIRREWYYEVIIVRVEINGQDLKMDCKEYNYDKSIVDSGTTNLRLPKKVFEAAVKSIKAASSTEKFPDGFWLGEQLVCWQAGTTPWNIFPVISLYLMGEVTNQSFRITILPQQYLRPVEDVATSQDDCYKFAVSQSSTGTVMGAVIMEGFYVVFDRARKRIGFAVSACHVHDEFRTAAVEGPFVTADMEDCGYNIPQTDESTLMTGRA

B1: 5988 (antibody, V domains shown)
VH: QVQLVQSGAEVKKPGSSVKVSCKASGGTLSGYAISWVRQAPGQGLEWMGNIIPGFGTANYAQKSQGRVTITADESTSTAYMELSSLRSEDTAVYYCARSGGTRYGMLDVWGQGTMVTVSS
VL: GIVMTQSPATLSVSPGERATLSCRASQSVGSNLAWYQQKPGQAPRLLIYGASTRATGIPARFSGSGSGTEFTLTISSLQSEDFAVYYCQQLYTWPPRTFGGGTKVEIK
notes: anti-BACE1 IgG
B1 showed a Kd [1] of under 0.29 nM, a Kd [2] of under 0.29 nM and a Kd [3] of under 0.29 nM. The Kd [4] was under 0.25 nM, the “IC50, Abeta x-40 in mouse cortical neurons” value [5] was 3.55 nM and the “maximal % inhibition of Abeta x-40” value [5] was 75%.

B2: 6271 (antibody, V domains shown)
VH: QVQLVQSGAEVKKPGSSVKVSCKASGGTISGYGISWVRQAPGQGLEWMGNIIPGFGTANYAQKFQGRVTITADESTSTAYMELSSLRSEDTAVYYCARSGGTKYGMLDVWGQGTMVTVSS
VL: EIVMTQSPATLSVSPGERATLSCRASQSVSSNLAWYQQKPGQAPRLLIYGASTRATGIPARFSGSGSGTEFTLTISSLQSEDFAVYYCQQLILWPPRTFGGGTKVEIK
notes: anti-BACE1 IgG
B2 showed a Kd [1] of under 0.31 nM, a Kd [2] of under 0.31 nM and a Kd [3] of under 0.31 nM. For the same binder, the Kd [4] was under 0.24 nM, the “IC50, Abeta x-40 in mouse cortical neurons” value [5] was 1.77 nM and the “maximal % inhibition of Abeta x-40” value [5] was 83%.

B3: 6272 (antibody, V domains shown)
VH: QVQLVQSGAEVKKPGSSVKVSCKASGGTFSGYGISWVRQAPGQGLEWMGNIIPGFGTANYAQKFQGRVTITADESTSTAYMELSSLRSEDTAVYYCARSGGTKYGMLDVWGQGTMVTVSS
VL: EIVMTQSPATLSVSPGERATLSCRASQSVSSNLAWYQQKPGQAPRLLIYGASTRATGIPARFSGSGSGTEFTLTISSLQSEDFAVYYCQQLFLWPPRTFGGGTKVEIK
notes: anti-BACE1 IgG
B3 was tested, and the Kd [1] was under 0.41 nM, the Kd [2] was under 0.87 nM and the Kd [3] was under 0.4 nM. The Kd [4] was under 0.39 nM, the “IC50, Abeta x-40 in mouse cortical neurons” value [5] was 43.6 nM and the “maximal % inhibition of Abeta x-40” value [5] was 82%.

B4: 6273 (antibody, V domains shown)
VH: QVQLVQSGAEVKKPGSSVKVSCKASGGTFSGYGISWVRQAPGQGLEWMGNIIPGFGTANYAQKFQGRVTITADESTSTAYMELSSLRSEDTAVYYCARSGGTKYGMLDVWGQGTMVTVSS
VL: EIVMTQSPATLSVSPGERATLSCRASQSVSSNIAWYQQKPGQAPRLLIYGASTRATGIPARFSGSGSGTEFTLTISSLQSEDFAVYYCQQLLLWPPRTFGGGTKVEIK
notes: anti-BACE1 IgG
In the case of B4, the Kd [1] is reported as under 0.39 nM, the Kd [2] is reported as under 0.39 nM and the Kd [3] is reported as under 0.4 nM. For the same binder, the Kd [4] was under 0.26 nM, the “IC50, Abeta x-40 in mouse cortical neurons” value [5] was 5.71 nM and the “maximal % inhibition of Abeta x-40” value [5] was 82%.

B5: 6276 (antibody, V domains shown)
VH: QVQLVQSGAEVKKPGSSVKVSCKASGGTFRGYAISWVRQAPGQGLEWMGNIIPGLSTANYAQKFQGRVTITADESTSTAYMELSSLRSEDTAVYYCARSGGTKYGMLDVWGQGTMVTVSS
VL: EIVMTQSPATLSVSPGERATLSCRASQSVSSNLAWYQQKPGQAPRLLIYGASTRATGIPARFSGSGSGTEFTLTISSLQSEDFAVYYCQQLILWPPRTFGGGTKVEIK
notes: anti-BACE1 IgG
B5 was tested, and the Kd [1] was under 0.62 nM, the Kd [2] was under 0.59 nM and the Kd [3] was under 0.54 nM. The Kd [4] was under 0.41 nM, the “IC50, Abeta x-40 in mouse cortical neurons” value [5] was 7.4 nM and the “maximal % inhibition of Abeta x-40” value [5] was 81%.

B6: 6300 (antibody, V domains shown)
VH: QVQLVQSGAEVKKPGSSVKVSCKASGGTLSGYAISWVRQAPGQGLEWMGNIIPGFGTANYAQKSQGRVTITADESTSTAYMELSSLRSEDTAVYYCARSGGTRYGMLDVWGQGTMVTVSS
VL: EIVLTQSPATLSVSPGERATLSCRASQSVGSNLAWYQQKPGQAPRLLIYGASTRATGIPARFSGSGSGTEFTLTISSLQSEDFAVYYCQQSFLWPPRTFGGGTKVEIK
notes: anti-BACE1 IgG
For B6, the Kd [1] was under 0.68 nM, the Kd [2] was under 0.8 nM and the “IC50, Abeta x-40 in mouse cortical neurons” value [6] was 9.1 nM. The “maximal % inhibition of Abeta x-40” value [6] was 71%, the Kd [3] was under 0.4 nM and the Kd [4] was under 0.34 nM.

B7: 5990 (antibody, V domains shown)
VH: QLQLQESGPGLVKPSETLSLTCTVSGGSISWSSYYWSWIRQPPGKGLEWIGSIYRSGRTYYNPSLKSRVTISVDTSKNQFSLKLSSVTAADTAVYYCARVGHGINYFDLWGRGTLVTVSS
VL: EIVLTQSPATLSLSPGERATLSCRASRSVNSYLAWYQQKPGQAPRLLIYDASKRATGIPARFSGSGSGTDFTLTISSLEPEDFAVYYCQQVYTWPPRTFGGGTKVEIK
notes: anti-BACE1 IgG
In the case of B7, the Kd [1] is reported as under 0.18 nM, the Kd [2] is reported as under 0.18 nM and the Kd [3] is reported as under 0.23 nM. The Kd [4] was under 0.18 nM, the “IC50, Abeta x-40 in mouse cortical neurons” value [5] was 0.53 nM and the “maximal % inhibition of Abeta x-40” value [5] was 61%.

B8: 6280 (antibody, V domains shown)
VH: QLQLQESGPGLVKPSETLSLTCTVSGGSTSSSSYYWGWIRQPPGKGLEWIGSIYRSGSTYYNPSFKSRVTISVDTSKNQFSLKLSSVTAADTAVYYCARVGHGISYFDLWGRGTLVTVSS
VL: EIVLTQSPATLSLSPGERATLSCRASQSVSSYLAWYQQKPGQAPRLLIYDASNRATGIPARFSGSGSGTDFTLTISSLEPEDFAVYYCQQSLTWPPRTFGGGTKVEIK
notes: anti-BACE1 IgG
For B8, the Kd [1] was under 0.32 nM, the Kd [2] was under 0.32 nM and the Kd [3] was under 0.31 nM. The Kd [4] was 0.31 nM, the “IC50, Abeta x-40 in mouse cortical neurons” value [5] was 8.29 nM and the “maximal % inhibition of Abeta x-40” value [5] was 65%.

B9: 6285 (antibody, V domains shown)
VH: QLQLQESGPGLVKPSETLSLTCTVSGGSTSSSSYYWGWIRQPPGKGLEWIGSIYRSGSTYYNPSLKSRVTISVDTSKNQFSLKLSSVTAADTAVYYCARVGHGISYFDLWGRGTLVTVSS
VL: EIVLTQSPATLSLSPGERATLSCRASQSVSSYLAWYQQKPGQAPRLLIYDASSRATGIPARFSGSGSGTDFTLTISSLEPEDFAVYYCQQSLTWPPRTFGGGTKVEIK
notes: anti-BACE1 IgG
With B9 the Kd [1] was under 0.28 nM, the Kd [2] was 0.32 nM and the Kd [3] was 0.41 nM. The Kd [4] was 0.43 nM, the “IC50, Abeta x-40 in mouse cortical neurons” value [5] was 15.4 nM and the “maximal % inhibition of Abeta x-40” value [5] was 57%.

B10: 6291 (antibody, V domains shown)
VH: QLQLQESGPGLVKPSETLSLTCTVSGGSISSSSYYWGWIRQPPGKGLEWIGMIYYSGSTWYNPSLKSRVTISVDTSKNQFSLKLSSVTAADTAVYYCARVGHGVSYFDLWGRGTLVTVSS
VL: EIVLTQSPATLSLSPGERATLSCRASQSVSSYLAWYQQKPGQAPRLLIYGASKRATGIPARFSGSGSGTDFTLTISSLEPEDFAVYYCQQVYTWPPRTFGGGTKVEIK
notes: anti-BACE1 IgG
With B10 the Kd [1] was under 0.26 nM, the Kd [2] was under 0.28 nM and the Kd [3] was under 0.3 nM. The Kd [4] was under 0.26 nM, the “IC50, Abeta x-40 in mouse cortical neurons” value [5] was 1.41 nM and the “maximal % inhibition of Abeta x-40” value [5] was 68%.

B11: 6294 (antibody, V domains shown)
VH: QLQLQESGPGLVKPSETLSLTCTVSGGSISSSSHYWGWIRQPPGKGLEWIGMIYYSGSTWYNPSLKSRVTISVDTSKNQFSLKLSSVTAADTAVYYCARVGHGVSYFDLWGRGTLVTVSS
VL: EIVLTQSPATLSLSPGERATLSCRASQSVSSYLAWYQQKPGQAPRLLIYDASKRATGIPARFSGSGSGTDFTLTISSLEPEDFAVYYCQQVYTWPPRTFGGGTKVEIK
notes: anti-BACE1 IgG
B11 was tested, and the Kd [1] was under 0.3 nM, the Kd [2] was under 0.3 nM and the Kd [3] was under 0.34 nM. The Kd [4] was under 0.27 nM, the “IC50, Abeta x-40 in mouse cortical neurons” value [5] was 3.53 nM and the “maximal % inhibition of Abeta x-40” value [5] was 59%.

B12: 6298 (antibody, V domains shown)
VH: QLQLQESGPGLVKPSETLSLTCTVSGGSISWSSYYWSWIRQPPGKGLEWIGNIYYSGSTYYNPSLKSRVTISVDTSKNQFSLKLSSVTAADTAVYYCARLGHGYNYFDLWGRGTLVTVSS
VL: EIVLTQSPATLSLSPGERATLSCRASQSVSSYLAWFQQKPGQAPRLLIYDASNRATGIPARFSGSGSGTDFTLTISSLEPEDFAVYYCQQVYVWPPRTFGGGTKVEIK
notes: anti-BACE1 IgG
For B12, the Kd [1] was 0.46 nM, the Kd [2] was 0.39 nM and the Kd [3] was 0.4 nM. For the same binder, the Kd [4] was 0.32 nM, the “IC50, Abeta x-40 in mouse cortical neurons” value [5] was 1.95 nM and the “maximal % inhibition of Abeta x-40” value [5] was 67%.

B13: Hu15G11.v1.Fab (Fab, V domains shown)
VH: EVQLVQSGAEVKKPGASVKVSCKASGYTFTSYWMHWVRQAPGQRLEWMGEINPTNGRTNYIEKFKSRVTITRDTSASTAYMELSSLRSEDTAVYYCARGTRAYHYWGQGTMVTVSS
VL: DIQMTQSPSSLSASVGDRVTITCRASDNLYSNLAWYQQKPGKAPKLLLYDATNLADGVPSRFSGSGSGTDYTLTISSLQPEDFATYYCQHFWGTPLTFGQGTKVEIK
notes: Fab
B13 showed a Kd [7] of 10.9 nM, a koff [7] of 0.00699 s⁻¹ and a kon [7] of 638000 M⁻¹ s⁻¹. For the same binder, the Kd [8] was 73.9 nM, the koff [8] was 0.0373 s⁻¹ and the kon [8] was 505000 M⁻¹ s⁻¹.
